Results reported in US20120165249A1.

How the values were obtained:
[1] = target: HIV-1 gag polyprotein (HIV-1); experiment: cell-based or functional assay
[2] = target: HIV-1 CA protein (capsid) (HIV-1); experiment: cell-based or functional assay

## NYAD-1 (peptide)
[1]
  release of immature-like particles from gag-transfected 293T cells (p24 ELISA) (fold reduction at 50 µM): 72
  release of mature-like particles from gag-pol transfected 293T cells (p24 ELISA) (fold reduction at 50 µM): 67
[2]
  inhibition of mature-like particle formation from purified CA protein in vitro (EM) (fold molar equivalent): 1
